Results on 1 substance are retold here after PMC12327617.

The test addresses myeloperoxidase (MPO), two subunits MPOα and MPOβ (human (endogenous in HL-60)). The experiment in a line: co-IP; anti-MPO-coated magnetic beads with HL-60 NET extract; H3.1-nucleosomes left after the IP quantified with the H3.1-nucleosome immunoassay, depletion against the unprocessed sample.

In the case of “H3.1-nucleosomes (nucleosomes containing the histone variant H3.1) of NETs (from UniProt P68431 1-136; P62805 1-103; P0C0S8 1-130; P62807 1-126) (complex)”, the percent depletion of H3.1-nucleosomes after IP anti-MPO came out at 30%.
